Laboratory results reported in US20250381223A1.

Columns and labels:
Her2-Fc [1] = test: flow cytometry of T cells electroporated with 0.5 µg 4D5.BBZ mRNA alone; Her2-Fc + PE-anti-IgG-Fc; E1 without mRNA: 1.26
Her2-Fc [2] = test: flow cytometry of T cells with 0.5 µg 4D5.BBZ mRNA and 15 µg 4.4 mRNA; Her2-Fc + PE-anti-IgG-Fc; E1 without mRNA: 1.26
Her2-Fc [3] = test: flow cytometry of T cells with 0.5 µg 4D5.BBZ mRNA and 15 µg 4.1 mRNA; Her2-Fc + PE-anti-IgG-Fc; E1 without mRNA: 1.26
Her2-Fc [4] = test: flow cytometry of T cells with 0.5 µg 4D5.BBZ mRNA and 15 µg 4.6 mRNA; Her2-Fc + PE-anti-IgG-Fc; E1 without mRNA: 1.26
CD40-Fc (human) = CD40-Fc (human) (UniProt P25942); test: flow cytometry of T cells electroporated with 0.5 µg 4D5.BBZ mRNA alone; CD40-Fc + PE-anti-IgG-Fc; E1 without mRNA: 0.27
Her2-Fc [5] = test: flow cytometry of T cells with 0.5 µg 4D5.BBZ mRNA and 15 µg 8.6 mRNA; Her2-Fc + PE-anti-IgG-Fc; E1 without mRNA: 1.26
Her2-Fc [6] = test: flow cytometry of T cells with 0.5 µg 4D5.BBZ mRNA and 15 µg 4.2 mRNA; Her2-Fc + PE-anti-IgG-Fc; E1 without mRNA: 1.26
Her2-Fc [7] = test: flow cytometry of T cells with 0.5 µg 4D5.BBZ mRNA and 15 µg 4.3 mRNA; Her2-Fc + PE-anti-IgG-Fc; E1 without mRNA: 1.26
Her2-Fc [8] = test: flow cytometry of T cells with 0.5 µg 4D5.BBZ mRNA and 5 µg A40C28 mRNA; Her2-Fc + PE-anti-IgG-Fc; E1 without mRNA: 1.26
Her2-Fc [9] = test: flow cytometry of T cells with 0.5 µg 4D5.BBZ mRNA and 15 µg 4.5 mRNA; Her2-Fc + PE-anti-IgG-Fc; E1 without mRNA: 1.26
Her2-Fc [10] = test: flow cytometry of T cells with 0.5 µg 4D5.BBZ mRNA and 15 µg 4.8 mRNA; Her2-Fc + PE-anti-IgG-Fc; E1 without mRNA: 1.26
Her2-Fc [11] = test: flow cytometry of T cells with 0.5 µg 4D5.BBZ mRNA and 15 µg 1412-4D11 mRNA; Her2-Fc + PE-anti-IgG-Fc; E1 without mRNA: 1.26
Her2-Fc [12] = test: flow cytometry of T cells with 0.5 µg 4D5.BBZ mRNA and 15 µg 4.7 mRNA; Her2-Fc + PE-anti-IgG-Fc; E1 without mRNA: 1.26

% of cells in the positive gate (Her2-Fc [1]): 94.9
% of cells in the positive gate (Her2-Fc [2]): 91.1
% of cells in the positive gate (Her2-Fc [3]): 89.6
% of cells in the positive gate (Her2-Fc [4]): 87.9
% of cells in the positive gate (CD40-Fc (human)): 0.67
% of cells in the positive gate (Her2-Fc [5]): 86.1
% of cells in the positive gate (Her2-Fc [6]): 88.8
% of cells in the positive gate (Her2-Fc [7]): 91.4
% of cells in the positive gate (Her2-Fc [8]): 94.6
% of cells in the positive gate (Her2-Fc [9]): 85.5
% of cells in the positive gate (Her2-Fc [10]): 81.6
% of cells in the positive gate (Her2-Fc [11]): 18.5
% of cells in the positive gate (Her2-Fc [12]): 82.6
Substance: 4D5.BBZ (scFv)
